PMC3377377

Biological target: histone H3 tail symmetrically dimethylated on R2 and trimethylated on K4 (H3R2me2sK4me3)
Experiment: fluorescence polarisation

- fold increase in binding affinity against H3K4me3 alone: 20 fold
Substance: PHD finger of RAG2 (domain or fragment)
